Experimental data taken from patent US20220267415A1.

Assays:
Settings in all cases: remark: other sources report otherwise
[1] = biological target: T1, recombinant Spike protein (Sino Biologicals Cat #40589-V08B1) (SARS-CoV-2), P0DTC2; experiment: BLI (Octet), His-tagged S on Ni-NTA sensor, avidity
[2] = biological target: T1, recombinant Spike protein (Sino …); experiment: ELISA on coated recombinant spike
[3] = biological target: recombinant SARS-CoV-2 Receptor Binding Domain (RBD) with a his tag (ATUM, Cat. 65639.1.a) (SARS-CoV-2), P0DTC2; experiment: ELISA on coated RBD-his
[4] = biological target: T2, wild type RBD protein (generated as in Ku et al. 2021) (SARS-CoV-2), P0DTC2; experiment: BLI competition, RBD on sensor, antibody then ACE2; competitor ACE2
[5] = biological target: T2, wild type RBD protein (generated as in …); experiment: binding KD on RBD protein, generally as Example 4

B1: anti-SARS-CoV2-14 IgG (lambda-VL-kappa-CL hybrid light chain) (antibody, V domains shown)
VH: EVQLQQSGPGLVKPSQTLSLTCAISGDSVSSNSAAWNWIRQSPSRGLEWLGRTYYRSKWYNDYAVSVKSRITINPDTSKNQFSLQLNSVTPEDTAVYYCAREEQQLVHDYYYYGMDVWGQGTMVTVSS
VL: QAVVTQPASVSGSPGQSITISCTGTSSDIGAYNYISWYQQHPGKAPKLIIYEVSNRPSGISYRFSGSKSGNTASLTISGLQAEDEANYYCSSYAGSISFGGGTKVTVL
Q: What does the source list for B1?
A: Kd [1]: 1.39 nM; koff [1]: 0.0013 s⁻¹; kon [1]: 933000 M⁻¹ s⁻¹; EC50 [2]: 6.22 nM; EC50 [3]: > 60 nM

B2: anti-SARS-CoV2-14 IgG (full lambda light chain) (antibody, V domains shown)
VH: B1 VH
VL: B1 VL
Q: With B2 as the binder, how does the EC50 [4] read?
A: 18.6 nM

Q: What about the Kd [5] of the same binder?
A: 0.82 nM
